This note sets out measurements from patent US20210206856A1 (PANDION OPERATIONS, published 2021).

First the molecules themselves.
B1: MAdCAM Antibody Table 1 Clone 33 (scFv)
scFv: QVQLVQSGAEVKKPGASVKVSCKASGYTFTSYGISWVRQAPGQGLEWMGWMHPKSGDTGLTQKFQGRVTMTRDTSTSTVYMELSSLRSEDTAVYYCARDTPYYYYGMDVWGQGTTVTVSSGGGGSGGGGSGGGGSGGGGSDIQMTQSPSSLSASVGDRVTITCRASQSISSWLAWYQQKPGKAPKLLIYAASSLQSGVPSRFSGSGSGTDFTLTISSLQPEDFATYYCQQSYSVPITFGQGTKVEIK
B2: MAdCAM Antibody Table 1 Clone 27 (scFv)
scFv: QVQLVQSGAEVKKPGASVKVSCKASGYTFTGYYIHWVRQAPGQGLEWMGWMNPNSGNTGYAQKFQGRVTMTRDTSTSTVYMELSSLRSEDTAVYYCARDPGFLGYCSGGSCYDGWFDPWGQGTLVTVSSGGGGSGGGGSGGGGSGGGGSDIQMTQSPSSLSASVGDRVTITCRASQSISSYLHWYQQKPGKAPKLLIYAASSLQSGVPSRFSGSGSGTDFTLTISSLQPEDFATYYCQQSYTAPYTFGQGTKLEIK
B3: MAdCAM Antibody Table 1 Clone 40 (scFv)
scFv: QVQLVQSGAEVKKPGASVKVSCKASGYTFTSYGISWVRQAPGQGLEWMGIINPRGGSTIFAQKFQGRVTMTRDTSTSTVYMELSSLRSEDTAVYYCARGTRSSGWYGWFDPWGQGTLVTVSSGGGGSGGGGSGGGGSGGGGSDIQMTQSPSSLSASVGDRVTITCRASQGIGNWLAWYQQKPGKAPKLLIYAASNLETGVPSRFSGSGSGTDFTLTISSLQPEDFATYYCQQIHSYPLTFGGGTKVEIK
B4: MAdCAM Antibody Table 1 Clone 28 (scFv)
scFv: QVQLVQSGAEVKKPGASVKVSCKASGYTFTDYFLHWVRQAPGQGLEWMGWMNPTSGNTGYAQKFQGRVTMTRDTSTSTVYMELSSLRSEDTAVYYCAREGEGSGFDYWGQGTLVTVSSGGGGSGGGGSGGGGSGGGGSDIQMTQSPSSLSASVGDRVTITCRASQGINSWLAWYQQKPGKAPKLLIYDASNLETGVPSRFSGSGSGTDFTLTISSLQPEDFATYYCQQSYSTPLTFGGGTKVEIK
B5: MAdCAM Antibody Table 1 Clone 31 (scFv)
scFv: QVQLVQSGAEVKKPGASVKVSCKASGYTFTSYYMHWVRQAPGQGLEWMGIINPSGGSTSYAQKFQGRVTMTRDTSTSTVYMELSSLRSEDTAVYYCARDTGYSYGRYYYYGMDVWGQGTLVTVSSGGGGSGGGGSGGGGSGGGGSDIQMTQSPSSLSASVGDRVTITCRASQSIGRWLAWYQQKPGKAPKLLIYDASNLQSGVPSRFSGSGSGTDFTLTISSLQPEDFATYYCQQSYSIPITFGQGTKVEIK
B6: MAdCAM Antibody Table 1 Clone 36 (scFv)
scFv: B5 scFv with S31G, Y32H, L120T, Q245G
B7: MAdCAM Antibody Table 1 Clone 37 (scFv)
scFv: QVQLVQSGAEVKKPGASVKVSCKASGYTFSKHFVHWVRQAPGQGLEWMGWMNPNSGNSGYAQKFQGRVTMTRDTSTSTVYMELSSLRSEDTAVYYCARGEGGYYYYGMDVWGQGTLVTVSSGGGGSGGGGSGGGGSGGGGSDIQMTQSPSSLSASVGDRVTITCRASQSISSWLAWYQQKPGKAPKLLIYAASTLQSGVPSRFSGSGSGTDFTLTISSLQPEDFATYYCQQSYSTPWTFGQGTKVEIK
B8: MAdCAM Antibody Table 1 Clone 29 (scFv)
scFv: QVQLVQSGAEVKKPGASVKVSCKASGYTFTSYYMHWVRQAPGQGLEWMAWMNPNSGNTGYAQKFQGRVTMTRDTSTSTVYMELSSLRSEDTAVYYCARDYDFWSGSLGYWGQGTLVTVSSGGGGSGGGGSGGGGSGGGGSDIQMTQSPSSLSASVGDRVTITCRASQGISNYLAWYQQKPGKAPKLLIYAASSLQSGVPSRFSGSGSGTDFTLTISSLQPEDFATYYCQQSYSTPWTFGQGTKVEIK
B9: MAdCAM Antibody Table 1 Clone 39 (scFv)
scFv: QVQLVQSGAEVKKPGASVKVSCKASGYTFTSYYMHWVRQAPGQGLEWMGWMNPNSGNTGYAQKFQGRVTMTRDTSTSTVYMELSSLRSEDTAVYYCARDLGYYDSSGYFGAFDIWGQGTTVTVSSGGGGSGGGGSGGGGSGGGGSDIQMTQSPSSLSASVGDRVTITCQSSEDISSSLNWYQQKPGKAPKLLIYAASSLQIGVPSRFSGSGSGTDFTLTISSLQPEDFATYYCQQTYSTPYTFGQGTKVEIK
B10: MAdCAM Antibody Table 1 Clone 35 (scFv)
scFv: EVQLLESGGGLVQPGGSLRLSCAASGFSFSSYTMNWVRQAPGKGLEWVSFITSSSRTIYYADSVKGRFTISRDNSKNTLYLQMNSLRAEDTAVYYCARDRRGDYGDSWYFDLWGRGTLVTVSSGGGGSGGGGSGGGGSGGGGSEIVMTQSPATLSVSPGERATLSCRASQSVRNYLAWYQQKPGQAPRLLIYGASTRATGIPARFSGSGSGTEFTLTISSLQSEDFAVYYCQQYGSSPLTFGGGTKVEIK
B11: MAdCAM Antibody Table 1 Clone 38 (scFv)
scFv: EVQLLESGGGLVQPGGSLRLSCAASGFTFGSYSMSWVRQAPGKGLEWVSAIGTGGGTYYADSVKGRFTISRDNSKNTLYLQMNSLRAEDTAVYYCAKGTPYYYYYGMDVWGQGTMVTVSSGGGGSGGGGSGGGGSGGGGSDIQMTQSPSSLSASVGDRVTITCRASQPLSNWLAWYQQKPGKAPKLLIYAASSLQSGVPSRFSGSGSGTDFTLTISSLQPEDFATYYCQQAISFPLTFGGGTKVEIK
B12: MAdCAM Antibody Table 1 Clone 42 (scFv)
scFv: QVQLVQSGAEVKKPGSSVKVSCKASGGTLSRYGVSWVRQAPGQGLEWMGGIIPIFGTTNYAQKFQGRVTITADESTSTAYMELSSLRSEDTAVYYCARDRVYYDSSGYPTWYFDLWGRGTLVTVSSGGGGSGGGGSGGGGSGGGGSEIVMTQSPATLSVSPGERATLSCRASQSVSSSYLAWYQQKPGQAPRLLIYGASTRATGIPARFSGSGSGTEFTLTISSLQSEDFAVYYCQQYGSSPITFGQGTKVEIK
B13: MAdCAM Antibody Table 1 Clone 32 (scFv)
scFv: QVQLVQSGAEVKKPGASVKVSCKASGYTLTDYYMHWVRQAPGQGLEWMGIINPSGGSTSYAQKFQGRVTMTRDTSTSTVYMELSSLRSEDTAVYYCAREEYSSSSGYFDYWGQGTLVTVSSGGGGSGGGGSGGGGSGGGGSDIQMTQSPSSLSASVGDRVTITCRASQGISSWLAWYQQKPGKAPKLLIYAASSLQSGVPSRFSGSGSGTDFTLTISSLQPEDFATYYCQQSYSTPLTFGQGTKVEIK

Positions count from the first letter of the chain named.

The first assay has as its target T1, mouse MAdCAM expressed on cells (mouse, UniProt Q61826 22-405).
T1 construct: whole, on cells
T1 sequence (looked up): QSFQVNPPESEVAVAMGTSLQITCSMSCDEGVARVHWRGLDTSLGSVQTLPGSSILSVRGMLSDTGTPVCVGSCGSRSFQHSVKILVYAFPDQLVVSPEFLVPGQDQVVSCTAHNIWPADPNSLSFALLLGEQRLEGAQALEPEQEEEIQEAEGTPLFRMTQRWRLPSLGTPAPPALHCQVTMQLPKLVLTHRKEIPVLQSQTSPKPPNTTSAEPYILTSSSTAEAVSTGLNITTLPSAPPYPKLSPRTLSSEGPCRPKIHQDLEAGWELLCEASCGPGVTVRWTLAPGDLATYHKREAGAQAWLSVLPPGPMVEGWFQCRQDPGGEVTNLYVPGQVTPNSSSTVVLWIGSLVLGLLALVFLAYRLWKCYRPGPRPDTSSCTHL
Briefly: cell binding.
B1: the binding result is “no binding”.
On the same count and under the same terms, the value for B2 was “no binding”; that for B3 was “no binding”; that for B4 was “no binding”.
Same read-out and setting: for B5 the value was “no binding”; for B6, “no binding”; for B7, “no binding”.
On the same count and under the same terms, for B8 the value was “no binding”; for B9, “no binding”.
In the case of B10, the binding result is given as “no binding”.
Regarding B11, the binding result was “no binding”.
As to B12, the binding result is reported as “no binding”.
Same read-out and setting: the value for B13 was “no binding”.

In a further assay the target is T2, human MAdCAM expressed on cells (human, UniProt Q13477 19-382).
T2 construct: whole, on cells; also called MADCAM1
T2 sequence (looked up): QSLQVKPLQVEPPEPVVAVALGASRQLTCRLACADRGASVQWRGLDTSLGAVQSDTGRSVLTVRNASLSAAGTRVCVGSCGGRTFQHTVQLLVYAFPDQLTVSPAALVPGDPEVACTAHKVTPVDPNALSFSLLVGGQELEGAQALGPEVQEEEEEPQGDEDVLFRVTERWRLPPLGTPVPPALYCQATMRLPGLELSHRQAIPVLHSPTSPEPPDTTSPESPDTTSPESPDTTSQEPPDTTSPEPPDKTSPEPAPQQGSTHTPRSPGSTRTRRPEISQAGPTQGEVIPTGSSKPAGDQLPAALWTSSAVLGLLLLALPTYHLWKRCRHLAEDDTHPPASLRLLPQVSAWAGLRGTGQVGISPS
Briefly: cell binding.
As to B1, the binding result is on record as “binds”.
The same measure, in the same setting: for B2 the value was “binds”.
On the same count and under the same terms, the value for B3 was “binds”; that for B4 was “binds”.
Same read-out and setting: for B5 the value was “binds”.
For the molecule B6, the binding result is on record as “binds”.
The same measure, in the same setting: for B7 the value was “binds”.
Same read-out and setting: the value for B8 was “binds”.
The same measure, in the same setting: the value for B9 was “binds”; that for B10 was “binds”.
Take B11: the binding result is recorded as “binds”.
Turning to B12, the binding result is on record as “binds”.
Same read-out and setting: the value for B13 was “binds”.
